Data: patent US20190389914A1 (University of California, published 2019)
Substitutions are numbered along the chain they refer to. Names and notes keep the numbering of the source.

Key:
[1] = target: GAL4 activation domain fusion to HAB1^!-3 (pACT-HAB1^!-3; D204A in HAB1^!-2) (Arabidopsis thaliana (Mouse-ear cress)) (UniProt Q9CAJ0); assay: Y2H, mandipropamid (FIG. 5)
[2] = target: GAL4 activation domain fusion to HAB1 (pACT-HAB1), wild type (Arabidopsis thaliana (Mouse-ear cress)) (UniProt Q9CAJ0); assay: Y2H, mandipropamid (FIG. 6)
[3] = target: GAL4 activation domain fusion to HAB1^V393R (Arabidopsis thaliana (Mouse-ear cress)) (UniProt Q9CAJ0); assay: Y2H, ABA, beta-gal staining (FIG. 1)
[4] = target: T1, GAL4 activation domain fusion to HAB1^!-2 (pACT-HAB1^!-2; HAB1^V393R/R505A) (Arabidopsis thaliana (Mouse-ear cress), UniProt Q9CAJ0 4-511); assay: Y2H, mandipropamid (FIG. 3)
T1 construct: R505A introduced into the pACT clone carrying V393R; the pACT-HAB1 template lacks the three N-terminal amino acids of HAB1; also called HAB^!-2
T1 sequence: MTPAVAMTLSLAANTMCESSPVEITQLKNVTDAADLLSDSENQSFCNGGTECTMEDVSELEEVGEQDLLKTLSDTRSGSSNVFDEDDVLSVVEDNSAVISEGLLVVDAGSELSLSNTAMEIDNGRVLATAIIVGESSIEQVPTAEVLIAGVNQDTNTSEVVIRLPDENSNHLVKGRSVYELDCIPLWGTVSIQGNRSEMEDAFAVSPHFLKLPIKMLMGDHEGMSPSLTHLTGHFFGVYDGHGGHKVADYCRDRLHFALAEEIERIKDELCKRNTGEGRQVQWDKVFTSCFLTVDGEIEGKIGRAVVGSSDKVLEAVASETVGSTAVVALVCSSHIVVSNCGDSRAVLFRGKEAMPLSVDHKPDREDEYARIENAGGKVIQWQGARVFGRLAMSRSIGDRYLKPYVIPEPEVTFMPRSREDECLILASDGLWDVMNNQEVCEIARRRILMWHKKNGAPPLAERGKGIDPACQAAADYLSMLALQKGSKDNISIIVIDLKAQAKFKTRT

[5] = target: T2, GAL4 activation domain fusion to HAB1^V393R (Arabidopsis thaliana (Mouse-ear cress), UniProt Q9CAJ0 4-511); assay: Y2H, mandipropamid (FIG. 3)
T2 construct: Mutant of the pACT-HAB1 template, which lacks the three N-terminal amino acids of HAB1; Denoted HAB1^!
T2 sequence: T1 sequence with A502R

[6] = target: T3, 6x-His-PYR1 (recombinant wild type, E. coli) (Arabidopsis, UniProt O49686 1-191); assay: pull-down on His-tag resin, SDS-PAGE (FIG. 8)
T3 construct: Previously constructed (Park et al., 2009); also called 6×-His-PYR1; wild type PYR1; not shown: 6x-His tag
T3 sequence: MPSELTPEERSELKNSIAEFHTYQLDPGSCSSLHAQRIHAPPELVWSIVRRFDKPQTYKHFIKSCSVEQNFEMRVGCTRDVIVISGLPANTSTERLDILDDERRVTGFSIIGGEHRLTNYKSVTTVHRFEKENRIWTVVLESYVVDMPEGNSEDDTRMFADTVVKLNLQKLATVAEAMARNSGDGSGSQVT

## GAL4 DNA binding domain fusion to PYR1*^-MANDI (PYR1^Y58H;K59R;V81I;F108A;S122G;M158I;F159V;A160V;T162D) (from UniProt P04386 1-147) (receptor)
[1]
  fold less sensitive to mandipropamid relative to HAB1^!-2: 10 fold
[2]
  fold less sensitivity to mandipropamid than the orthogonal interaction: 10 fold

## GAL4 DNA binding domain fusion to PYR1^T162D (from UniProt P04386 1-147) (receptor)
[3]
  fold less sensitive to ABA than wild type pBD-PYR1/pACT-HAB1 control cells: 4 fold

B1: GAL4 DNA binding domain fusion to PYR1^!-MANDI (PYR1^Y58H;K59R;V81I;F108A;S122G;F159L;T162D) (receptor, not shown: small tags and cut ends)
chain: T3 sequence with Y58H, K59R, V81I, F108A, S122G, F159L, T162D
notes: Septuple mutant; also called pBD-PYR1^!-MANDI
[4]
  fold less sensitive to mandipropamid than the PYR1^MANDI/HAB1 interaction: ~100 fold
[5]
  fold less sensitive to mandipropamid than the PYR1^MANDI/HAB1 interaction: ~100 fold

B2: GST-HAB1* (recombinant, E. coli) (enzyme)
chain: T1 sequence with R196A, D201A, S319D
notes: Cloned into pGEX-4T-1; not shown: glutathione S-transferase (GST) of pGEX-4T-1
[6]
  binding result: no binding
